In patent publication US20200095615A1:

Tests used:
[1] = biological target: Glucoamylase PE001: variant of the Penicillium oxalicum glucoamylase having a K79V substitution (Penicillium oxalicum); experiment: cell-based or functional assay
[2] = biological target: wild type Penicillium oxalicum glucoamylase (Penicillium oxalicum); experiment: cell-based or functional assay
[3] = system: T1, wild type Penicillium oxalicum glucoamylase
T1 sequence: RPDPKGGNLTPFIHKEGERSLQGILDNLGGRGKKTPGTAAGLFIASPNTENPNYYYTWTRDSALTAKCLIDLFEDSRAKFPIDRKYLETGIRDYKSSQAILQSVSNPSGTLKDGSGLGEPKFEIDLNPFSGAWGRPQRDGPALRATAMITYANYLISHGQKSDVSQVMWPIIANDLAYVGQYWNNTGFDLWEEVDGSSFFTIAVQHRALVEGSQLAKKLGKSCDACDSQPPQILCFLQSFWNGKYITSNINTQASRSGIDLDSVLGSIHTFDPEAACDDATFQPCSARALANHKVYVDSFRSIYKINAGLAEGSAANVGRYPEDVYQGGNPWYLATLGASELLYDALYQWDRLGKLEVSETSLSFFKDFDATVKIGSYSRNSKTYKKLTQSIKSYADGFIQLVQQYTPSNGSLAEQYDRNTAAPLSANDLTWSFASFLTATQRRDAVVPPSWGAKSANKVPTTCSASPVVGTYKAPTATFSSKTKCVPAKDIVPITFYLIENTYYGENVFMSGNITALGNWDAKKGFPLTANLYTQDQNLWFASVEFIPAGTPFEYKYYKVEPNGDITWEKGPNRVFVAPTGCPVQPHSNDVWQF

Substance | intact glucoamylase (ca. 70 kDa), SDS-PAGE after protease treatment overnight at 4 °C [1] [%] | intact glucoamylase (ca. 70 kDa), SDS-PAGE after protease treatment overnight at 32 °C [1] [%] | intact glucoamylase (ca. 70 kDa), SDS-PAGE after protease treatment overnight at 4 °C [2] [%] | intact glucoamylase (ca. 70 kDa), SDS-PAGE after protease treatment overnight at 32 °C [2] [%] | cleaved glucoamylase (ca. 60 kDa), SDS-PAGE after protease treatment overnight at 32 °C [3] [%] | cleaved glucoamylase (ca. 60 kDa), SDS-PAGE after protease treatment overnight at 4 °C [3] [%]
aorsin (enzyme) | 100 | 100 | 40 | 10 |  | 
aspergillopepsin I (enzyme) | 100 | 100 | 100 | 90 |  | 
aspergillopepsin I |  |  |  |  | 10 | 
aorsin |  |  |  |  | 90 | 60
